Measured values taken from paper PMC8897147.

T1: glucagon-like peptide-1 receptor-Rluc8, P43220
T1 chain: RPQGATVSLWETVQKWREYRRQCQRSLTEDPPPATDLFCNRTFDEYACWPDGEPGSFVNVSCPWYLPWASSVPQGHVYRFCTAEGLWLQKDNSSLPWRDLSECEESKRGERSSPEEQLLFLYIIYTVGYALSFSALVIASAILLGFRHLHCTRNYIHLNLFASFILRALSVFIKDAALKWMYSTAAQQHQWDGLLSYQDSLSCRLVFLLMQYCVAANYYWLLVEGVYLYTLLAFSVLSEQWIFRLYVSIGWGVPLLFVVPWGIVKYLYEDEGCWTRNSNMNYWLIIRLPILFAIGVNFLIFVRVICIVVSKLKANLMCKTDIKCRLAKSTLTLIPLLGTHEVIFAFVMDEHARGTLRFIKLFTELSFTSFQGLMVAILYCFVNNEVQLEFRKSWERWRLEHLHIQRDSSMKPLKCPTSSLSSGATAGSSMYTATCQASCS

T2: growth hormone-releasing hormone receptor-Rluc8, Q02643
T2 chain: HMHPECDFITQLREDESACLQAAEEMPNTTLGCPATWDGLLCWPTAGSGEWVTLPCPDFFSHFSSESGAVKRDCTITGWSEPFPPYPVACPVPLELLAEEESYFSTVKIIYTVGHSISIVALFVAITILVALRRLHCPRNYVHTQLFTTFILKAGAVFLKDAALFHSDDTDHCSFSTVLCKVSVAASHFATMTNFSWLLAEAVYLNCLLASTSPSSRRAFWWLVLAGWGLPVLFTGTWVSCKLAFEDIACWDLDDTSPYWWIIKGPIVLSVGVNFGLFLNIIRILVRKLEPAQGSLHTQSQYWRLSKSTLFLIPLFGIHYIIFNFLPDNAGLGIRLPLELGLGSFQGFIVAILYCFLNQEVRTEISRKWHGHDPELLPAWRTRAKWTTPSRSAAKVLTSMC


Experiments:
Experiment in all cases: FRET or BRET
[1] = molecular target: SV1, splice variant of GHRHR, -Rluc8
[2] = molecular target: T1, glucagon-like peptide-1 receptor-Rluc8, …; conditions: remark: other sources report otherwise
[3] = molecular target: secretin receptor-Rluc8, P47872; conditions: remark: other sources report otherwise
[4] = molecular target: T2, growth hormone-releasing hormone …; conditions: remark: other sources report otherwise

Sequence of secretin receptor-Rluc8, P47872 (P47872 23-440): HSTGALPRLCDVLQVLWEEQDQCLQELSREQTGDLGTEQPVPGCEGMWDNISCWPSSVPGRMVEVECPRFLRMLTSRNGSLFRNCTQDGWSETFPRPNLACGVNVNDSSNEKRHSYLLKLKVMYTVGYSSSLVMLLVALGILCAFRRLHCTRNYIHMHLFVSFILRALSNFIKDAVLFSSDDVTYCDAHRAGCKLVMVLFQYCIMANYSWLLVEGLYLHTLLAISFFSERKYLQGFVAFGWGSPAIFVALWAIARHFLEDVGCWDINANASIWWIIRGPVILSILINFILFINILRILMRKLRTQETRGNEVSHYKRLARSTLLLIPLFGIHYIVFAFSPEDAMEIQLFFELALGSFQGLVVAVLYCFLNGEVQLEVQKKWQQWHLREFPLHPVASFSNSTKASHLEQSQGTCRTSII

| BRET50 (Kd) (intensity ratio of RAMP:receptor) [1] | BRET50 (Kd) (intensity ratio of RAMP:receptor) [2] | BRET50 (Kd) (intensity ratio of RAMP:receptor) [3] | BRET50 (Kd) (intensity ratio of RAMP:receptor) [4] | Binder |
| --- | --- | --- | --- | --- |
| 5.98 | – | – | – | RAMP3-Ypet (receptor activity-modulating protein 3) (natural protein) RAGGCNETGMLERLPLCGKAFADMMGKVDVWKWCNLSEFIVYYESFTNCTEMEANVVGCYWPNPLAQGFITGIHRQFFSNCTVDRVHLEDPPDEVLIPLIVIPVVLTVAMAGLVVWRSKRTDTLL |
| – | 2.23 | 2.41 | – | RAMP2-Ypet (receptor activity-modulating protein 2), O60895 43-175 (natural protein) QPLPTTGTPGSEGGTVKNYETAVQFCWNHYKDQMDPIEKDWCDWAMISRPYSTLRDCLEHFAELFDLGFPNPLAERIIFETHQIHFANCSLVQPTFSDPPEDVLLAMIIAPICLIPFLITLVVWRSKDSEAQA |
| – | 10.9 | 1.3 | 2.43 | RAMP1-Ypet (receptor activity-modulating protein 1), O60894 27-148 (natural protein) CQEANYGALLRELCLTQFQVDMEAVGETLWCDWGRTIRSYRELADCTWHMAEKLGCFWPNAEVDRFFLAVHGRYFRSCPISGRAVRDPPGSILYPFIVVPITVTLLVTALVVWQSKRTEGIV |
